{
  "source": "the nanobody polyreactivity screen of Harvey et al. (2022)",
  "data": [
    {"experiment": "yeast display, Sf9 membrane polyspecificity reagent, FACS + sequencing; frameworks hold sequencing errors", "how_it_was_run": "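Galactose induction of a Saccharomyces cerevisiae BJ5465 synthetic nanobody display library ran 36–48 hours. The cells were then stained for 1 hour at 4 °C with 10% biotinylated, detergent-solubilized Sf9 membrane reagent, pulled down on streptavidin microbeads and FACS-sorted into low and high (top ~1%) gates on expression and reagent-binding fluorescence. Labels for polyreactivity follow the gate of origin.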", "values": [
      {"sequence": "QVQLVESGGGLVQAGGSLRLSCPASGLTFWLYALGWYRQAPGKERELVAAITRSGGSTSYADSVKGRFTISRDNAKNTVYLQMNSLKPEDTAVYYCNADSPGYTAVRLVEFDYWGQGTQVTVSS", "polyreactivity (PSR sort gate)": "low polyreactivity"},
      {"sequence": "QVQLVESGGGLVQAGGSLRLSCAASGLIFSPYAMGWYRQAPGKERELVATISVSGGDTYYADSVKGRFTISRDNAKNTVYLQMNSLIPDDTAVYYCAADSFYRYYWGQGTHVTVSS", "polyreactivity (PSR sort gate)": "high polyreactivity"},
      {"sequence": "QVQLVESGGGLVQAGGSLRLSCAASGSIFVGNAMGWYRQAPGKERELVAAISSGGSTYYADSVKGRFTISRDNAKNTVYLQMNSLKPEDTAVYYCAAYYVRRYSSRPKDDYWGQGTQVTVSS", "polyreactivity (PSR sort gate)": "low polyreactivity"},
      {"sequence": "QVQLVESGGGLVQAGGSLRLSCAASGRILRYNAMGWYRQAAGKERELVAAISSGGSTYADSVKGRFTISRDNAKNTVYLQMNSLKPDDTAVYYCNAPSVGAAFDYWGQGTQVTVSS", "polyreactivity (PSR sort gate)": "high polyreactivity"},
      {"sequence": "QVQLVESGGGLVQAGGSLRLSCAASGRIFYYYALGWYRQAPGKERELVAAISSIDGTTYYADSVKGRFTISRDNAKNTVYLQMNSLKPEDTAVYYCAAEDPADQYDYWGQGTQVTVSS", "polyreactivity (PSR sort gate)": "high polyreactivity"},
      {"sequence": "QVQLLESGGGLVQAGGSLRLSCAASGSIYVYNAMAWYRQAPGKERELVAAISRGGRTYADSVKGRFTISRDNAKNTVYLQMNSLKPEDTAVYYCAAQGYYRSWYSRQGHYDFWGQGTQVTVSS", "polyreactivity (PSR sort gate)": "high polyreactivity"},
      {"sequence": "QVQLVESGGGLVQAGGSLRLSCAASGSIFSYYDMGWYRQAPGKERELVAAIRWSGGITYADSVKGRFTISRDNAKNTVYLEMNSLKPEDTAVYYCAADQYYRSDYYYWGQGTQVTVSS", "polyreactivity (PSR sort gate)": "low polyreactivity"},
      {"sequence": "QVQLVESGGGLVQAGGSLRLSFAASGRIFQFYGMGWYRQAPGKEREFVAAITRNGGNTYYADSVKGRYTISRDNAKNTVDLQMNSLKPEDTAVYYCAAANPRDHRGANDYWGQGTQVTVSS", "polyreactivity (PSR sort gate)": "high polyreactivity"},
      {"sequence": "QVQLVESGGGLVQSGGSLRLSCAASGFTFASYAMGWYRQAPGKERELVAAIDSDDSTNYADSVKGRFTISRDNAKNTVYLQMNSLKPEDTAVYYCAADEGPYYGIYEYYYWGQGTQVTVSS", "polyreactivity (PSR sort gate)": "high polyreactivity"},
      {"sequence": "QVHLVESGGCLVQAGGTLRLSCAATGSIFYNYDMRWYRQAPGKEREFVAAITWSGTSTYYADSVKGRFTISRDNAKNTVYLQMNSLKPEDSAVYYCNALVRRRPGYIRYDYWGQGTQVTVSS", "polyreactivity (PSR sort gate)": "low polyreactivity"},
      {"sequence": "QVQLVESGGGLVQAGGSLRLSSAASGSTLVYYDRGWYRQAPGKERELVATITGTDSTYYADSVKGRFTISRDNAKNTVYLQMNSLKPVDTADCAADRAASRPVYDYWGQGTQVTVSS", "polyreactivity (PSR sort gate)": "low polyreactivity"},
      {"sequence": "QVQLVESGGGLVQAGGSLRLSCAASGLTFLRNGMGLYRQAPGKERELVASITRSGTRTYYADSVKGRFTISRDNAKNSVYLQMNSLKPEDTAVYYCAARAYVSHYGVSNFGFYYWVQGTQVTVSS", "polyreactivity (PSR sort gate)": "high polyreactivity"},
      {"sequence": "QVQLVESGGGLVQAGGSLRLSCAASGSIFGSYVMGGYRQAPGKERELVATITNGGSTYYADSVKGRFTISRDNAKNTVYLQMNSLKPEDTAVYYCAADGRGDLYVWPGIGGDYWGQGTQVTVSS", "polyreactivity (PSR sort gate)": "low polyreactivity"},
      {"sequence": "QVQLVESGGGLVQAGGSLRLSCAASGSIFSGYMGWYRQAPGKERELVATITSGGSTYADSVKGRFTISRDNAKNTVYLQMNSLKPEDTAVYYCAADVSFYTSKYDYWGQGTQVTVSS", "polyreactivity (PSR sort gate)": "low polyreactivity"},
      {"sequence": "QVQLVESGGGLVQAGGSLRLSCAASGSTFQYYAMGWYRQAPGKEREFVAAIHWDGGRTYYADSVKGRFTISRDNAKNTVYLQMNSLKPEDTAVYYCAAYTRYKMDYWGQGTQVTVSS", "polyreactivity (PSR sort gate)": "high polyreactivity"},
      {"sequence": "QVQLVESGGGLVQAGGSLRLSCAATGITFTRYAMGWYRQAPGKEREFVAAIRRSGGNTYYADSVKGRFTISRDNAKNTVYILMNSLKPEDTAVYYCAASFRKTSPTRLVDYWGQGTQVTVSS", "polyreactivity (PSR sort gate)": "low polyreactivity"},
      {"sequence": "QVQLVESGGGLVQAGGSLRLSCAASGSTFNVYGLGWYRQAPGKERELVAAINRDGITYADSVKGRFTISRDNAKNTVYLQMNSLKPEDTAVYYCAAGYSPYKGSAGYYWGQGTQVTVSS", "polyreactivity (PSR sort gate)": "low polyreactivity"}
    ]}
  ]
}
